Reference: PMC4389572
Substitutions are numbered along the chain they refer to.

B1: SH3_(circ-Δ), backbone-cyclized N-terminal SH3 domain of c-Crk lacking Ala134 and Glu135 (Cys + residues 136-191) (domain or fragment)
chain: CYVRALFDFNGNDEEDLPFKKGDILRIRDKPEEQWWNAEDSEGKRGMIPVPYVEKYG
modifications: backbone cyclized: cyclo-[...], peptide bond between the N-terminal Cys and the C-terminal Gly191
B2: SH3_(circ-wt), backbone-cyclized N-terminal SH3 domain of c-Crk (Cys-Gly + residues 134-191) (domain or fragment)
chain: CGAEYVRALFDFNGNDEEDLPFKKGDILRIRDKPEEQWWNAEDSEGKRGMIPVPYVEKYG
modifications: backbone cyclized: cyclo-[...], peptide bond between the N-terminal Cys and the C-terminal Gly191
B3: SH3_(lin-wt), linear N-terminal SH3 domain of c-Crk (residues 134-190 with an additional Gly191) (domain or fragment)
chain: AEYVRALFDFNGNDEEDLPFKKGDILRIRDKPEEQWWNAEDSEGKRGMIPVPYVEKYG
B4: SH3_(circ-GΔ), backbone-cyclized N-terminal SH3 domain of c-Crk lacking Ala134 and Glu135 (Cys-Gly + residues 136-191) (domain or fragment)
chain: B3 chain with A1C, E2G
modifications: backbone cyclized: cyclo-[...], peptide bond between the N-terminal Cys and the C-terminal Gly191

Each binder was assayed against C3G-based poly-Pro peptide ligand (assay: other fluorescence titration; fluorescence-based titration assay as described in Camarero et al., 2001b; conditions not given here).

In order of falling Kd:
1. B2  890 nM
2. B3  870 nM
3. B4  470 nM
4. B1  430 nM
